Results on three substances are retold here after patent publication US10239937.

Test [1] addresses C3 fragments (iC3b, C3dg and C3d) of human complement component C3, deposited on cells or tissue (human) (UniProt P01024). In words: flow cytometry, rabbit RBCs + human serum + TT30 0.46 µM, time 0, panel A8-2-0 [Time: 0]. Background: In flow cytometry, cells or beads pass a laser one at a time.
The target is the same in test [2]. Put plainly: flow cytometry, rabbit RBCs + human serum, no TT30, panel A12-2-0.
The target is the same in test [3]. Put plainly: flow cytometry, rabbit RBCs + human serum + TT30 0.46 µM, 4 hr, panel A8-4-3 [Time: 4 hr].
For test [4] the target is unchanged. Put plainly: flow cytometry, rabbit RBCs + human serum + TT30 3.7 µM, time 0, panel A2-2-0; filing: no C3 fragments or TT30 on the cells at this concentration [Time: 0].
The target is the same in test [5]. Put plainly: flow cytometry, rabbit RBCs + human serum + TT30 0.06 µM, time 0, panel A11-3-0 [Time: 0].
For test [6] the target is unchanged. Put plainly: flow cytometry, rabbit RBCs + human serum + TT30 0.46 µM, time 0, panel A8-3-0 [Time: 0].
Test [7] has the same target. In words: flow cytometry, rabbit RBCs + human serum + TT30 1.4 µM, time 0, panel A5-3-0 [Time: 0].
Test [8] has the same target. Put plainly: flow cytometry, rabbit RBCs + human serum + TT30 0.46 µM, 24 hr, panel A8-24-3 [Time: 24 hr].
The target is the same in test [9]. Put plainly: flow cytometry, rabbit RBCs + human serum + TT30 0.06 µM, time 0, panel A11-2-0 [Time: 0].
Test [10] shares this target. Put plainly: flow cytometry, rabbit RBCs + human serum + TT30 0.46 µM, 2 hr, panel A8-2-2 [Time: 2 hr].
For test [11] the target is unchanged. Put plainly: flow cytometry, rabbit RBCs + human serum + TT30 1.4 µM, time 0, panel A5-2-0 [Time: 0].
Test [12] shares this target. Put plainly: flow cytometry, rabbit RBCs + human serum + TT30 0.46 µM, 24 hr, panel A8-24-2 [Time: 24 hr].
For test [13] the target is unchanged. In words: flow cytometry, rabbit RBCs + human serum + TT30 0.46 µM, 4 hr, panel A8-4-2 [Time: 4 hr].
The target is the same in test [14]. Put plainly: flow cytometry, rabbit RBCs + human serum, no TT30, panel A12-3-0.
The target is the same in test [15]. Put plainly: flow cytometry, rabbit RBCs + human serum + TT30 0.46 µM, 2 hr, panel A8-2-3 [Time: 2 hr].
For test [16] the target is unchanged. Put plainly: flow cytometry, rabbit RBCs + human serum + TT30 3.7 µM, time 0, panel A2-3-0; filing: no C3 fragments or TT30 on the cells at this concentration [Time: 0].
Test [17] has the same target. Put plainly: flow cytometry, rabbit RBCs + human serum + TT30 1.4 µM, time 0, panel A5-1-0; isotype control for anti-C3d [Time: 0].
The target of test [18] is TT30 (human). In words: flow cytometry, rabbit RBCs + human serum + TT30 0.46 µM, 4 hr, panel A8-4-2; isotype control for HB5 [Time: 4 hr].
Chain of TT30 (human) (chain, as listed by the source limits assumed): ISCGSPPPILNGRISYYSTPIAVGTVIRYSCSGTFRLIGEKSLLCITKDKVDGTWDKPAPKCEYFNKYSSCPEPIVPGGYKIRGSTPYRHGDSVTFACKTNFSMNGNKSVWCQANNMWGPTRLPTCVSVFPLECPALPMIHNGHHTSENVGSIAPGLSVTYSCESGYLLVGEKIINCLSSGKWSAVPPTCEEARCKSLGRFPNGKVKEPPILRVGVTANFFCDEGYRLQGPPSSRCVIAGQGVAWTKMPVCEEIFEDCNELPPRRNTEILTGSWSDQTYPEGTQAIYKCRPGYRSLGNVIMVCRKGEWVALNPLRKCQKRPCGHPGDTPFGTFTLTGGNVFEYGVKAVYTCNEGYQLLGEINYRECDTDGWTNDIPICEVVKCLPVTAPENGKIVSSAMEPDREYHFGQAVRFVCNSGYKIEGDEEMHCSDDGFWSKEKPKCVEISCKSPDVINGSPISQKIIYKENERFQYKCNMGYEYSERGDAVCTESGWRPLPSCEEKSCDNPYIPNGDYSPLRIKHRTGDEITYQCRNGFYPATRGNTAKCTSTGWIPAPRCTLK
The target in test [19] is TT30 (human). In words: flow cytometry, rabbit RBCs + human serum + TT30 0.46 µM, 2 hr, panel A8-2-2; isotype control for HB5 [Time: 2 hr].
The target of test [20] is TT30 (human). In words: flow cytometry, rabbit RBCs + human serum + TT30 0.46 µM, 24 hr, panel A8-24-2; isotype control for HB5 [Time: 24 hr].
Test [21] addresses TT30 (human). Put plainly: flow cytometry, rabbit RBCs + human serum + TT30 1.4 µM, time 0, panel A5-2-0; isotype control for HB5 [Time: 0].

Chain of UniProt P01024 (P01024 1002-1303 limits assumed): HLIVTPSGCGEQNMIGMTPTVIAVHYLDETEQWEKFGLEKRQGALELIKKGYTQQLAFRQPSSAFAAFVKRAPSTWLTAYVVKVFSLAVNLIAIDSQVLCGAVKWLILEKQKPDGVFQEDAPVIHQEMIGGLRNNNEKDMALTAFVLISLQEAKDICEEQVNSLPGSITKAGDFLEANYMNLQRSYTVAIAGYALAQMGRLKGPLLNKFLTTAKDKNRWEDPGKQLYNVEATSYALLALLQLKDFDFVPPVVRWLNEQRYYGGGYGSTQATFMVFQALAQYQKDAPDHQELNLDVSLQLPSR

Regarding C3d (A702)-APC (antibody), the % of gated cells in Q4-UL (C3d-APC+, IgG2a-FITC-) came out at 84.8% in [1]; 100% in test [2]; 2.4% in [4]; 90.3% in test [9]; 89.8% in test [10]; 84.9% in test [11]. The values for the % of gated cells in Q4-UL (C3d-APC+, IgG2a-FITC-) in test [12] and in [13] were 97.9% and 93.4%, respectively. For the same substance, the % of gated cells in Q4-UR (C3d-APC+, IgG2a-FITC+) came out at 0% in test [1]; 0% in test [2]; 0% in [4]; 0% in [9]; 0.3% in [10]; 0% in test [11]. The % of gated cells in Q4-UR (C3d-APC+, IgG2a-FITC+) in [12] is 0.3%; in test [13] it was 0%. Also, the % of gated cells in Q4-UL (C3d-APC+, HB5-FITC-) in test [3] worked out at 38.2%; in [5], 78.9%; in test [6] it was 11.5%; in test [7], 81%; in [8], 51.7%; in [14], 94.9%. For the same substance, the % of gated cells in Q4-UL (C3d-APC+, HB5-FITC-) worked out at 25.3% in test [15] and 0% in test [16]. Moreover, the % of gated cells in Q4-UR (C3d-APC+, HB5-FITC+) was found to be 54.7% in [3]; 5.3% in test [5]; 69.8% in test [6]; 4% in test [7]; 44.4% in test [8]; 2.6% in [14]. For the same substance, the % of gated cells in Q4-UR (C3d-APC+, HB5-FITC+) was 67.5% in test [15] and 0% in [16].
As to IgG1-APC (antibody), the % of gated cells in Q4-UR (IgG1-APC+, HB5-FITC+) in test [17] stood at 0.4%.
As for IgG2a-FITC (antibody), the % of gated cells in Q4-LR (C3d-APC-, IgG2a-FITC+) was determined as 0.3% in test [18], 0.3% in [19], 0.3% in [20] and 0.5% in test [21]. Further, the % of gated cells in Q4-UR (C3d-APC+, IgG2a-FITC+) in test [19] and in test [20] was 0.3% in each case.
